This test addresses WH01 RBD (residues 333-530) (SARS-CoV-2 Wuhan-Hu-01 (WH01), UniProt P0DTC2). Kind of test: crystal structure. As to conditions: both partners purified.

B1: Nb22 (VHH)
VHH: QVQLVESGGNLVQPGGSLRLSCAASGGTLASFAVGWFRQAPGKEREGVSCIDVINRANYADSVKGRFTISRDSAKNTVYLQMNSLEPEDTAVYSCAAHFVPPGSRLRGCLVNELYNYWGQGTQVTVSS
Regarding B1, the binding result is “binds”.

These data come from publication PMC8967979 (Frontiers in Immunology, 2022).
